Assay results as given in patent US10941182 (Amgen, dated 2021).
Starred links: 1 amine or outer side, 2 acyl side, 3 side chain; linkers in the order of their positions; H or OH if unused. Non-standard residues stand in square brackets, D forms with d. Primed or numbered codes have the meaning given here. No end group written: not given here. *: point of attachment. Pra′ = its azide, alkyne or alkene has reacted where a group follows in round brackets; Atz = 3-(1,2,3-triazol-4-yl)alanine, O=C([C@H](Cc1c[nH]nn1)N[*:1])[*:2]; Propanoyl(3-triazol-4-yl) = O=C(CCc1cn([*:1])nn1)[*:2]; PEG12 = NCCOCCOCCOCCOCCOCCOCCOCCOCCOCCOCCOCCOCCC(=O)O; dBip = N[C@H](Cc1ccc(-c2ccccc2)cc1)C(=O)O; BhLeu = source's own code, no definition; BhPhe = source's own code, no definition; Oic = O=C(O)[C@@H]1C[C@@H]2CCCC[C@@H]2N1; Phe(4-Cl) = N[C@@H](Cc1ccc(Cl)cc1)C(=O)O; dPhe(4-Cl) = N[C@H](Cc1ccc(Cl)cc1)C(=O)O; Phe(4-I) = N[C@@H](Cc1ccc(I)cc1)C(=O)O; γGlu = O=C(O)[C@H](CCC(=O)[*:2])N[*:1]; NMeR = CN[C@@H](CCCNC(=N)N)C(=O)O; Tridecanoyl = CCCCCCCCCCCCC(=O)*; hArg = N=C(N)NCCCC[C@H](N)C(=O)O; Cha = N[C@@H](CC1CCCCC1)C(=O)O; NMeL = CN[C@@H](CC(C)C)C(=O)O; AC4Abu″ = not defined here; code O = not defined here; Nle = CCCC[C@H](N)C(=O)O; Orn = NCCC[C@H](N)C(=O)O; AEEA = NCCOCCOCC(=O)O; βAla = NCCC(=O)O; Mpa = O=C(O)CCS

T1: human APJ receptor (human, UniProt P35414 1-380)
T1 sequence (looked up): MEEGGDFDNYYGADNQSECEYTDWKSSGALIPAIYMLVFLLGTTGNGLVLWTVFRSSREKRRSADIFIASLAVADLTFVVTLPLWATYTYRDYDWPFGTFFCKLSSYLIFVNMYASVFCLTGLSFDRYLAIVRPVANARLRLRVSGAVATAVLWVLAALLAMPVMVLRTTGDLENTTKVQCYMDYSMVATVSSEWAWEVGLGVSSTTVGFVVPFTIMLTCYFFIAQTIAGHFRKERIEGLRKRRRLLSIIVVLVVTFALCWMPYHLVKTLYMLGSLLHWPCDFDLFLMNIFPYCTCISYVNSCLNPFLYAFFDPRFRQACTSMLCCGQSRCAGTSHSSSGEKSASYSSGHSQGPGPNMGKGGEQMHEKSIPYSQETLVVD

T2: rat APJ receptor (rat, UniProt Q9JHG3 1-377)
T2 sequence (looked up): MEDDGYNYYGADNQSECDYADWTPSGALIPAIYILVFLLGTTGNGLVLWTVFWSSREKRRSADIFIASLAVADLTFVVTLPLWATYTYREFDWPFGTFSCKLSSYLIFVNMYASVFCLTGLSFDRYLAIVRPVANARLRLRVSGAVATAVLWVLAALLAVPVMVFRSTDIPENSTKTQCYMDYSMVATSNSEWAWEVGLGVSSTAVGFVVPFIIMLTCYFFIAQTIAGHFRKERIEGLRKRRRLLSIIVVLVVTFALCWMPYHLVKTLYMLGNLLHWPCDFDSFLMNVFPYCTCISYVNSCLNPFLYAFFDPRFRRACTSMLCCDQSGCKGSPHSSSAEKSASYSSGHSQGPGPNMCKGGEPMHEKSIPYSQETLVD

B1: apelin polypeptide SEQ ID NO: 126 (peptide)
peptide: Tridecanoyl-[γGlu][AEEA][AEEA][dQ][hArg]P[NMeR][Cha]SHKG[Oic][Nle]P[dF]-OH
SMILES: CCCCCCCCCCCCC(=O)N[C@@H](CCC(=O)NCCOCCOCC(=O)NCCOCCOCC(=O)N[C@H](CCC(N)=O)C(=O)N[C@@H](CCCCNC(=N)N)C(=O)N1CCC[C@H]1C(=O)N(C)[C@@H](CCCNC(=N)N)C(=O)N[C@@H](CC1CCCCC1)C(=O)N[C@@H](CO)C(=O)N[C@@H](Cc1c[nH]cn1)C(=O)N[C@@H](CCCCN)C(=O)NCC(=O)N1[C@H](C(=O)N[C@@H](CCCC)C(=O)N2CCC[C@H]2C(=O)N[C@H](Cc2ccccc2)C(=O)O)C[C@@H]2CCCC[C@@H]21)C(=O)O
B2: apelin polypeptide SEQ ID NO: 104 (peptide)
peptide: {20K‑mPEGReg-Propanoyl(3-triazol-4-yl)}-[hArg]RQ[hArg]PR[NMeL]SHKG[Oic][Phe(4-I)]P[dBip]-OH
modifications: also: 20 kDa PEG conjugate
B3: apelin polypeptide SEQ ID NO: 101 (peptide)
peptide: {20K mPEGacetamide}-[Mpa]QRP[hArg][Cha]SHKG[Oic][Nle]P[Phe(4-Cl)]-OH
modifications: numbers in words are those of the source; also: 20 kDa PEG conjugate
B4: apelin polypeptide SEQ ID NO: 106 (peptide)
peptide: Ac-[Atz](20K‑mPEG)LRP[hArg][Cha]SHKG[Oic][Nle]P[Phe(4-Cl)]-OH
B5: apelin polypeptide SEQ ID NO: 674 (peptide)
peptide: [hArg]Q[hArg]P[NMeR][Cha]SHKG[Oic][Nle]P[Phe(4-Cl)]
B6: apelin polypeptide SEQ ID NO: 154 (peptide)
peptide: Tridecanoyl-[γGlu][AEEA][AEEA][dR]Q[hArg]P[dR][NMeL]SHKG[Oic][Phe(4-I)]P[dPhe(4-Cl)]-OH
SMILES: CCCCCCCCCCCCC(=O)N[C@@H](CCC(=O)NCCOCCOCC(=O)NCCOCCOCC(=O)N[C@H](CCCNC(=N)N)C(=O)N[C@@H](CCC(N)=O)C(=O)N[C@@H](CCCCNC(=N)N)C(=O)N1CCC[C@H]1C(=O)N[C@H](CCCNC(=N)N)C(=O)N(C)[C@@H](CC(C)C)C(=O)N[C@@H](CO)C(=O)N[C@@H](Cc1c[nH]cn1)C(=O)N[C@@H](CCCCN)C(=O)NCC(=O)N1[C@H](C(=O)N[C@@H](Cc2ccc(I)cc2)C(=O)N2CCC[C@H]2C(=O)N[C@H](Cc2ccc(Cl)cc2)C(=O)O)C[C@@H]2CCCC[C@@H]21)C(=O)O
B7: apelin polypeptide SEQ ID NO: 212 (peptide)
peptide: Tridecanoyl-[AC4Abu″][AEEA][AEEA]RQRP[hArg][NMeL]SHKG[Oic][Phe(4-I)]P[dBip]-OH
modifications: reading uncertain
B8: apelin polypeptide SEQ ID NO: 149 (peptide)
peptide: Tridecanoyl-[γGlu][AEEA][AEEA][hArg][dQ][hArg]P[NMeR][Cha]SHKG[Oic][Nle]P[dF]-OH
SMILES: CCCCCCCCCCCCC(=O)N[C@@H](CCC(=O)NCCOCCOCC(=O)NCCOCCOCC(=O)N[C@@H](CCCCNC(=N)N)C(=O)N[C@H](CCC(N)=O)C(=O)N[C@@H](CCCCNC(=N)N)C(=O)N1CCC[C@H]1C(=O)N(C)[C@@H](CCCNC(=N)N)C(=O)N[C@@H](CC1CCCCC1)C(=O)N[C@@H](CO)C(=O)N[C@@H](Cc1c[nH]cn1)C(=O)N[C@@H](CCCCN)C(=O)NCC(=O)N1[C@H](C(=O)N[C@@H](CCCC)C(=O)N2CCC[C@H]2C(=O)N[C@H](Cc2ccccc2)C(=O)O)C[C@@H]2CCCC[C@@H]21)C(=O)O
B9: apelin polypeptide SEQ ID NO: 153 (peptide)
peptide: Tridecanoyl-[γGlu][AEEA][AEEA][dR]Q[hArg]P[dR][NMeL]SHKG[Oic][Phe(4-I)]P[Oic]-OH
SMILES: CCCCCCCCCCCCC(=O)N[C@@H](CCC(=O)NCCOCCOCC(=O)NCCOCCOCC(=O)N[C@H](CCCNC(=N)N)C(=O)N[C@@H](CCC(N)=O)C(=O)N[C@@H](CCCCNC(=N)N)C(=O)N1CCC[C@H]1C(=O)N[C@H](CCCNC(=N)N)C(=O)N(C)[C@@H](CC(C)C)C(=O)N[C@@H](CO)C(=O)N[C@@H](Cc1c[nH]cn1)C(=O)N[C@@H](CCCCN)C(=O)NCC(=O)N1[C@H](C(=O)N[C@@H](Cc2ccc(I)cc2)C(=O)N2CCC[C@H]2C(=O)N2[C@H](C(=O)O)C[C@@H]3CCCC[C@@H]32)C[C@@H]2CCCC[C@@H]21)C(=O)O
B10: apelin polypeptide SEQ ID NO: 107 (peptide)
peptide: Ac-[Pra′](20K‑mPEGReg)[Orn]F[hArg][hArg]QRP[hArg][NMeL]SHKG[Oic][Phe(4-I)]P[dBip]-OH
B11: apelin polypeptide SEQ ID NO: 103 (peptide)
peptide: {20K‑mPEGReg-Propanoyl(3-triazol-4-yl)}-[hArg][dR]Q[hArg]P[dR][NMeL]SHKG[Oic][Phe(4-I)]P[dBip]-OH
modifications: also: 20 kDa PEG conjugate
B12: apelin polypeptide SEQ ID NO: 105 (peptide)
peptide: Ac-[Atz](20K‑mPEG)KFRRQRP[hArg][Cha]SHKG[Oic][Nle]P[Phe(4-Cl)]-OH
B13: apelin polypeptide SEQ ID NO: 102 (peptide)
peptide: [PEG12]KFRRQRP[hArg][Cha]SHKG[Oic][Nle]P[Phe(4-Cl)]-OH
modifications: also: PEG-apelin peptide conjugate
B14: apelin polypeptide SEQ ID NO: 708 (peptide)
peptide: [code O]F[hArg][hArg]Q[hArg]P[hArg][Cha]SHKG[Oic][βAla]P[Phe(4-Cl)]
modifications: reading uncertain; also: printed as OF[hArg][hArg]Q[hArg]P[hArg][Cha]SHKG[Oic][bAla]P[4-Cl-F]
B15: apelin polypeptide SEQ ID NO: 686 (peptide)
peptide: [code O][BhPhe][hArg][hArg]Q[hArg]P[hArg][Cha]SHKG[Oic][Nle]P[Phe(4-Cl)]
modifications: reading uncertain; also: printed as O[BhPhe][hArg][hArg]Q[hArg]P[hArg][Cha]SHKG[Oic][Nle]P[4-Cl-F]
B16: apelin polypeptide SEQ ID NO: 56 (peptide)
peptide: Ac-[hArg][hArg]Q[hArg]P[NMeR][Cha]SHKG[Oic][Nle]P[Phe(4-Cl)]-OH
SMILES: CCCC[C@H](NC(=O)[C@@H]1C[C@@H]2CCCC[C@@H]2N1C(=O)CNC(=O)[C@H](CCCCN)NC(=O)[C@H](Cc1c[nH]cn1)NC(=O)[C@H](CO)NC(=O)[C@H](CC1CCCCC1)NC(=O)[C@H](CCCNC(=N)N)N(C)C(=O)[C@@H]1CCCN1C(=O)[C@H](CCCCNC(=N)N)NC(=O)[C@H](CCC(N)=O)NC(=O)[C@H](CCCCNC(=N)N)NC(=O)[C@H](CCCCNC(=N)N)NC(C)=O)C(=O)N1CCC[C@H]1C(=O)N[C@@H](Cc1ccc(Cl)cc1)C(=O)O
B17: apelin polypeptide SEQ ID NO: 692 (peptide)
peptide: [code O]F[hArg][hArg][BhLeu][hArg]P[hArg][Cha]SHKG[Oic][Nle]P[Phe(4-Cl)]
modifications: reading uncertain; also: printed as OF[hArg][hArg][BhLeu][hArg]P[hArg][Cha]SHKG[Oic][Nle]P[4-Cl-F]
B18: apelin polypeptide SEQ ID NO: 97 (peptide)
peptide: KFRRQRP[hArg][Cha]SHKG[Oic][Nle]P[Phe(4-Cl)]-OH
modifications: not fully specified (N-terminus); printed as [MerPr](20K mPEGacetamide)KFRRQRP[hArg][Cha]SHKG[Oic][Nle]P[4-Cl-F]{COOH}; also: 20K mPEG acetamide conjugate on MerPr

The binders below were run against T1, human APJ receptor (assay: cell-based or functional assay).
With B1 the “EC50 Human APJ Receptor” value was 11 nM. With B2 the “EC50 Human APJ Receptor” value was 18.9 nM. For B3, the “EC50 Human APJ Receptor” value was 46.7 nM. In the case of B4, the “EC50 Human APJ Receptor” value is reported as 3.22 nM. With B5 the “EC50 Human APJ Receptor” value was 0.152 nM. In the case of B6, the “EC50 Human APJ Receptor” value is reported as 4.54 nM. For B7, the “EC50 Human APJ Receptor” value was 0.515 nM. For B8, the “EC50 Human APJ Receptor” value was 3.19 nM. For B9, the “EC50 Human APJ Receptor” value was 3.75 nM. B10 was tested, and the “EC50 Human APJ Receptor” value was 10.5 nM. B11 was tested, and the “EC50 Human APJ Receptor” value was 34.2 nM. With B12 the “EC50 Human APJ Receptor” value was 0.187 nM. B13 was tested, and the “EC50 Human APJ Receptor” value was 0.083 nM. For B14, the “EC50 Human APJ Receptor” value was 7.46 nM.

These binders were tested against T2, rat APJ receptor (assay: cell-based or functional assay).
In the case of B15, the “EC50 Rat APJ Receptor” value is reported as 0.188 nM. For B1, the “EC50 Rat APJ Receptor” value was 56.2 nM. In the case of B16, the “EC50 Rat APJ Receptor” value is reported as 0.915 nM. In the case of B2, the “EC50 Rat APJ Receptor” value is reported as 45 nM. In the case of B3, the “EC50 Rat APJ Receptor” value is reported as 150 nM. B17 was tested, and the “EC50 Rat APJ Receptor” value was 0.503 nM. For B4, the “EC50 Rat APJ Receptor” value was 47.3 nM. With B6 the “EC50 Rat APJ Receptor” value was 40.5 nM. In the case of B8, the “EC50 Rat APJ Receptor” value is reported as 9.99 nM. In the case of B9, the “EC50 Rat APJ Receptor” value is reported as 72 nM. With B10 the “EC50 Rat APJ Receptor” value was 10 nM. For B11, the “EC50 Rat APJ Receptor” value was 52.2 nM. B18 was tested, and the “EC50 Rat APJ Receptor” value was 0.253 nM. With B12 the “EC50 Rat APJ Receptor” value was 0.285 nM. In the case of B13, the “EC50 Rat APJ Receptor” value is reported as 0.18 nM.
